In patent US10350264B2, “Compositions and methods for modulating NCOA4-mediated autophagic targeting of ferritin” (Dana-Farber Cancer Institute, Inc., priority 2014, dated 2019):
Ends that are not written are not given here.

Assays:
[1] = biological target: T1, apo-ferritin purified from equine spleen (Equus caballus, UniProt Q8MIP0); test: GST pull-down assay of ferritin using GST-NCOA4 fragments; type: binding; details: anti-FTH1 immunoblot, FIGS. 7, 8, 11
T1 construct: apo-ferritin purified from equine spleen; purchased Sigma F4503; host or cells: equine spleen
Description: GST-tagged NCOA4 constructs were also made to probe the interactions of C-terminal portions of NCOA4 with ferritin. NCOA4-truncation constructs were produced using Gateway cloning (Invitrogen, Life Technologies, catalog #11789-013 and 11791-019) into a pDEST60 N-terminal GST fusion plasmid (GST-NCOA4) from EMD Millipore (Gateway Nova pET-60-DEST, product #71851-3) and transformed in E. coli BL21 (DE3) cells (New England Biosciences, C2527I).
NCOA4 truncation constructs were designed based on NCBI reference sequence: NP_001138735.1 (SEQ ID NO: 4). In particular, fragments of SEQ ID NO: 4 consisting of amino acids (aa) 1-245, aa 235-614, aa 235-560, aa 235-401, aa 383-560, aa 545-614, aa 383-522, aa 510-560, aa 383-436, aa 436-485, aa 475-522, aa 475-500, aa 480-500, aa 480-504, aa 485-509, aa 490-514, aa 495-522 were designed. Protein expression in the DE3 cells was induced with 1 mM isopropyl-beta-D-thiogalactopyranoside (IPTG) (Sigma, I6758-10 G) for 3 hours at 37° C. Cells were collected by centrifugation, re-suspended in 25 mM Tris-HCl (pH 7.4), 10% (w/v) sucrose and lysed with a single freeze-thaw cycle followed by sonication. After centrifugation, a GST pull-down assay was performed.
In the GST pull-down assay, lysates were incubated with 10 μl of a 50% (v/v) slurry of glutathione Sepharose 4B beads (GE Healthcare Lifesciences, 17-0756-01) for 30 minutes at 4° C. Beads were washed thoroughly with 150 mM NaCl, 20 mM Tris (pH 7.4), 2 mM dithiothreitol (DTT), 0.5% (w/v) Nonidet P-40, leaving 50-100 μg of GST-fusion protein bound to the beads. Beads were then mixed with 0.5-2 μg of apo-ferritin purified from equine spleen (Sigma F4503) or recombinant human FTH1 or FTL produced in Rosetta E. coli (EMD Millipore, 70953-3). The assay mix was incubated for 2 hours at 4° C., and beads were washed four times with 1 ml wash buffer. Proteins were eluted with SDS sample buffer and analyzed by 4-20% gradient SDS-PAGE and immunoblotting with anti-FTH1 antibody (as above) or anti-FLAG antibody (Sigma, F1804-200 UG). Pounceau stain was used to visualize GST-NCOA4 bands. (Pounceau, Sigma, P7170-1 L, protocol as per product manual).

[2] = biological target: T2, ferritin purified from horse spleen (mixture of FTH1 and FTL subunits) (Equus caballus, UniProt Q8MIP0); test: anti-MYC immunoprecipitation of in vitro translated MYC-NCOA4 constructs incubated with ferritin; type: binding; details: anti-MYC IP, anti-FTH1 immunoblot, FIG. 5
T2 construct: ferritin purified from horse spleen; purchased Sigma A3641-100 mg; host or cells: horse spleen
Experimental: To probe the interaction between ferritin and NCOA4, initial binding assays using MYC-tagged NCOA4 full-length and truncation constructs produced using an in vitro translation (“IVT”) system were conducted. MYC-NCOA4 fragments were cloned using PCR into a modified T7 cell-free expression vector (pT7CFE1-NMyc, #88863, Thermo Scientific). 1-Step Human Coupled IVT Kit—DNA from Thermo Scientific (product #88881) was used to produce MYC-tagged NCOA4 constructs as described in the product manual. Apoferritin (Sigma, A3641-100 mg) was added in a pull-down assay using anti-c-Myc Agarose Affinity Gel antibody produced in rabbit (Sigma, A7470-1 ML). Affinity purification reactions were washed thoroughly with 150 mM NaCl, 20 mM Tris (pH 7.4), and 2 mM dithiothreitol. Proteins were eluted with SDS sample buffer and analyzed by 4-20% gradient SDS-PAGE and immunoblotting with anti-FTH1 antibody (Cell Signaling 3998; Western blot 1:1,000) or anti-MYC antibody (Santa Cruz Sc-40; western blot 1:1,000).
The full-length, N-terminal (amino acids (aa) 1-245 of SEQ ID NO: 4) and C-terminal (aa 235-614 of SEQ ID NO:4) MYC-NCOA4 were incubated with ferritin purified from horse spleen (Apoferritin (Sigma, A3641-100 mg), consisting of a mixture of FTH1 and FTL subunits) and anti-MYC immunoprecipitation was performed followed by immunoblotting as described above.

8988T cells = test: NCOA4 protein levels while blocking autophagic flux (immunoblot); type: cell-based, human; details: CQ or BAF 8 hours, FIG. 2(c)
[3] = biological target: T3, HERC2-FLAG fragment (F3, HERC2 amino acids 1700-2700) (Homo sapiens, UniProt O95714); test: GST pull-down assay of HERC2-FLAG Fragment 3 using GST-NCOA4 fragments; type: binding; details: 293T lysate expressing HERC2-FLAG F3, anti-FLAG immunoblot; FIG. 12
T3 construct: HERC2-FLAG fragment (F3, HERC2 amino acids 1700-2700) was produced as described in Bekker-Jensen et al; expressed in transfected cells; host or cells: 293T cells (transient transfection, lysate used)
T3 sequence (O95714 1700-2700): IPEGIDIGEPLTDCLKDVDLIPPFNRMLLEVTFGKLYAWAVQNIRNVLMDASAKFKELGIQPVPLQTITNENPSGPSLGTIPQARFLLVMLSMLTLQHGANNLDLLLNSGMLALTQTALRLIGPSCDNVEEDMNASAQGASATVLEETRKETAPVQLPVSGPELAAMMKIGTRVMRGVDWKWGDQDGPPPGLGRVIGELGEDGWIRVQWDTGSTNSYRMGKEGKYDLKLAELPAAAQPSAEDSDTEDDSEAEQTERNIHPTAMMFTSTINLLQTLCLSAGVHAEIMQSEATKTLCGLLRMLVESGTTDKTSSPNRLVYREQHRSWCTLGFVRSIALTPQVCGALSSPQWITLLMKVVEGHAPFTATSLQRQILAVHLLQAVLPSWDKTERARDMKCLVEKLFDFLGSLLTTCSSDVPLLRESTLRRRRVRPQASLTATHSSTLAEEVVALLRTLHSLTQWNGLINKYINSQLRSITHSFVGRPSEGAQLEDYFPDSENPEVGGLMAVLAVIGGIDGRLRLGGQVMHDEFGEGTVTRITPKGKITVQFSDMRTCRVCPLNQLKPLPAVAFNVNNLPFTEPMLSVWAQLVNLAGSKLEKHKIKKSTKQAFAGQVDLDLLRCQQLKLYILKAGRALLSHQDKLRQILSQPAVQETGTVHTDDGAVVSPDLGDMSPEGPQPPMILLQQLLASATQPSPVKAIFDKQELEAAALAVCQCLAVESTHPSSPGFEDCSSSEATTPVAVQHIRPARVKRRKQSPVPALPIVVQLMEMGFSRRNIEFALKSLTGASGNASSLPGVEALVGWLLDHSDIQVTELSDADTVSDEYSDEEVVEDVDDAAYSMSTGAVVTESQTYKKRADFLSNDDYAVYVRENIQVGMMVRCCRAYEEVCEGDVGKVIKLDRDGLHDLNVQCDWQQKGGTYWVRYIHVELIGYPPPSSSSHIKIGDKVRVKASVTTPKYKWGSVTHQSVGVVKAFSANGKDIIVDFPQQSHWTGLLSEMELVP
Experimental: To map the interaction of NCOA-4 with HERC2, the GST-NCOA4 truncation constructs described above were also tested in a GST pull-down assay with HERC2-FLAG expressing 293T cell line. HERC2-FLAG fragment (F3, HERC2 amino acids 1700-2700) was produced as described in Bekker-Jensen et al., Nature Cell Biology (2010) 12; 80-86. The HERC2-FLAG F3 was transiently transfected into 293T cells using standard transfection procedures using PEI (Polysciences, #23966-2).
Lysates were obtained, as above, and incubated with 10 μl of a 50% (v/v) slurry of glutathione Sepharose 4B beads for 30 minutes at 4° C. Beads were washed thoroughly with 150 mM NaCl, 20 mM Tris (pH 7.4), 2 mM DTT, 0.5% (w/v) Nonidet P-40, leaving 50-100 μg of GST-fusion protein bound to the beads. Beads were then mixed with 300 μg of lysate from a HERC2-FLAG expressing 293T cell line, as above. The assay mix was incubated for 2 hours at 4° C., and beads were washed four times with 1 ml wash buffer. Proteins were eluted with SDS sample buffer and analyzed by 4-20% gradient SDS-PAGE and immunoblotting with anti-HERC2 antibody or anti-FLAG antibody, as above. Coomassie stain was used to visualize GST-NCOA4 bands as above.

T2 sequence (Q8MIP0 whole entry): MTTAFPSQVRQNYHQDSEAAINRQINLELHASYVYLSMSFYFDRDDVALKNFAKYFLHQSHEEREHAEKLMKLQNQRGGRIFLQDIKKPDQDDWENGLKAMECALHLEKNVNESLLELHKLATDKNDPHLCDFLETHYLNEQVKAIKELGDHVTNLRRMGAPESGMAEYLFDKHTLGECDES
T2 sequence (P02791 2-175 partner limits assumed): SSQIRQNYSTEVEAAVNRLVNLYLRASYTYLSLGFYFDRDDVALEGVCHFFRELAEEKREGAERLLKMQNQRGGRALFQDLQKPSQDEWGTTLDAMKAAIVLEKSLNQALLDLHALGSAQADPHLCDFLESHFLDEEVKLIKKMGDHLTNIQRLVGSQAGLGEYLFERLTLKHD
T1 sequence (Q8MIP0 whole entry, the tested form may be a part): as the sequence (Q8MIP0 whole entry) above
T1 sequence (P02791 2-175 partner limits assumed): as the sequence (P02791 2-175 partner limits assumed) above

Molecule | binding of GST-NCOA4 fragment to ferritin [1] | association of MYC-NCOA4 construct with ferritin [2] | other results
SFQVIKNSPLSEWLIRPPYKEGSPK (Homo sapien) [aa 485-509] | bound to ferritin |  | 
aa 555-614: printed as C-terminal MYC-NCOA4; probably only the C-terminal part of NCOA4B ({MYC tag}-GEDKWLLRKKAQEVLLNSPLQEEHNFPPDHYGLPAVCDLFACMQLKVDKEKWLYRTPLQM; cysteine pairing not given here) |  | associated with ferritin | 
aa 1-614: full-length human NCOA4 (NP_001138735.1), in vitro translated |  | associated with ferritin | association of MYC-NCOA4 construct with ferritin ([2]; listed as Full-length NCOA4): bind to ferritin
CO/C1=C\C(C)=C\[C@@H](C)[C@@H](O)[C@@H](C)C/C(C)=C/C=C/[C@H](OC)[C@@H]([C@@H](C)[C@@H](O)[C@H](C)[C@@]2(O)C[C@@H](O)[C@H](C)[C@@H](C(C)C)O2)OC1=O [Bafilomycin A1 (BAF), Bafilomycin A1] |  |  | NCOA4 protein levels (8988T cells): markedly increased
SMVTEDWLVQNHQDPCKVEEVCRANEPCTSFAECVCDENCEKEALYKWLLKKEG (Homo sapien) [aa 383-436] |  |  | binding of GST-NCOA4 fragment to HERC2-FLAG [3]: bound to HERC2-FLAG
aa 235-560: fragment of NCOA4 SEQ ID NO: 4 (protein, Homo sapien) ENSQTSSRACNFFNNVGGNLKGLENWLLKSEKSSYQKCNSHSTTSSFSIEMEKVGDQELPDQDEMDLSDWLVTPQESHKLRKPENGSRETSEKFKLLFQSYNVNDWLVKTDSCTNCQGNQPKGVEIENLGNLKCLNDHLEAKKPLSTPSMVTEDWLVQNHQDPCKVEEVCRANEPCTSFAECVCDENCEKEALYKWLLKKEGKDKNGMPVEPKPEPEKHKDSLNMWLCPRKEVIEQTKAPKAMTPSRIADSFQVIKNSPLSEWLIRPPYKEGSPKEVPGTEDRAGKQKFKSPMNTSWCSFNTADWVLPGKKMGNLSQLSSGEDKWL | bound to ferritin |  | 
N-terminal MYC-NCOA4: NCOA4 N-terminal fragment, amino acids 1-245 of SEQ ID NO: 4 (protein, N-terminal MYC tag; Homo sapien) MNTFQDQSGSSSNREPLLRCSDARRDLELAIGGVLRAEQQIKDNLREVKAQIHSCISRHLECLRSREVWLYEQVDLIYQLKEETLQQQAQQLYSLLGQFNCLTHQLECTQNKDLANQVSVCLERLGSLTLKPEDSTVLLFEADTITLRQTITTFGSLKTIQIPEHLMAHASSANIGPFLEKRGCISMPEQKSASGIVAVPFSEWLLGSKPASGYQAPYIPSTDPQDWLTQKQTLENSQTSSRACN |  | did not associate with ferritin | 
aa 383-560: fragment of NCOA4 SEQ ID NO: 4 (protein, Homo sapien) SMVTEDWLVQNHQDPCKVEEVCRANEPCTSFAECVCDENCEKEALYKWLLKKEGKDKNGMPVEPKPEPEKHKDSLNMWLCPRKEVIEQTKAPKAMTPSRIADSFQVIKNSPLSEWLIRPPYKEGSPKEVPGTEDRAGKQKFKSPMNTSWCSFNTADWVLPGKKMGNLSQLSSGEDKWL | bound to ferritin |  | binding of GST-NCOA4 fragment to HERC2-FLAG [3]: binds to HERC2 fragment
NCOAB: naturally occurring transcript variant of NCOA4 consisting of amino acids 1-238 and 555-614 (protein, left off: small tags and cut ends) MNTFQDQSGSSSNREPLLRCSDARRDLELAIGGVLRAEQQIKDNLREVKAQIHSCISRHLECLRSREVWLYEQVDLIYQLKEETLQQQAQQLYSLLGQFNCLTHQLECTQNKDLANQVSVCLERLGSLTLKPEDSTVLLFEADTITLRQTITTFGSLKTIQIPEHLMAHASSANIGPFLEKRGCISMPEQKSASGIVAVPFSEWLLGSKPASGYQAPYIPSTDPQDWLTQKQTLENSQGEDKWLLRKKAQEVLLNSPLQEEHNFPPDHYGLPAVCDLFACMQLKVDKEKWLYRTPLQM |  | did not bind ferritin | 
